Results published in the supplement of paper PMC7877785.
± gives the uncertainty stated by the source.

Assay: self-splicing fitness, log relative to wild type (ln ratio); higher = more splicing; Tetrahymena group I intron in knt gene, E. coli kanamycin selection, DiMSum; sequences stand for … in CUCUCU…GGAGGGAAAAGUUAUCAGGCAUGCACCUGGUAGCUAGUCUUUAAACCAAUAGAUUGCAUCGGUUUAAAAGGCAAGACCGUCAAAUUGCGGGAAAGGGGUCAACAGCCGUUCAGUACCAAGUCUCAGGGGAAACUUUGAGAUGGCCUUGCAAAGGGUAUGGUAAUAAGCUGACGGACAUGGUCCUAACCACGCAGCCAAGUCCUAAGUCAACAGAUCUUCUGUUGAUAUGGAUGCAGUUCACAGACUAAAUGUCGGUCGGGGAAGAUGUAUUCUUCUCAUAAGAUAUAGUCGGACCUCUCCUUAAUGGGAGCUAGCGGAUGAAGUGAUGCAACACUGGAGCCGCUGGGAACUAAUUUGUAUGCGAAAGUAUAUUGAUUAGUUUUGGAGUACUCGUGGUCG
In short: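 Six replicate transformations of E. coli BL21(DE3) with a pET-22b(+) library were grown overnight at 37°C or 30°C. The library randomised all eight P1ex-region intron nucleotides, the intron lying in the knt kanamycin-resistance gene, and plates were LB agar with or without 25 μg/mL kanamycin plus 100 μg/mL carbenicillin, 50 μM IPTG and 0.2% rhamnose. Pooled colonies were amplicon-sequenced on an Illumina HiSeq 2500, and fitness is the DiMSum error-weighted combination of wild-type-normalised replicate fold changes, kanamycin versus none.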

Sequence | self-splicing fitness (ln) (30 °C) | self-splicing fitness (ln) (37 °C)
AUGCAGCAAUAUUACGCUAA | -0.813 ± 0.13 | -0.31 ± 0.12
UCUCAGCAAUAUUACGCGAU | -4.5 ± 0.34 | -2.1 ± 0.36
AAUAAGCAAUAUUACGGCGU | 0.428 ± 0.082 | 0.242 ± 0.1
GCCUAGCAAUAUUACGCAUU | -0.686 ± 0.051 | -0.35 ± 0.062
UCUUAGCAAUAUUACGAUCA | -1.3 ± 0.22 | -1.15 ± 0.23
UUGCAGCAAUAUUACGGGUG | -1.7 ± 0.081 | -1.59 ± 0.13
UAGUAGCAAUAUUACGUGCA | -0.861 ± 0.12 | -0.189 ± 0.11
UAUGAGCAAUAUUACGUCUU | -2.71 ± 0.27 | -1.93 ± 0.23
CCUCAGCAAUAUUACGUUUU | -4.52 ± 0.27 | -3.03 ± 0.17
CUAUAGCAAUAUUACGAAAA | – | -2.17 ± 0.29
ACACAGCAAUAUUACGCUCG | -0.365 ± 0.064 | 0.194 ± 0.085
ACGCAGCAAUAUUACGCGUG | -3.43 ± 0.18 | -2.07 ± 0.17
UUGGAGCAAUAUUACGUAGG | -3.11 ± 0.23 | -1.86 ± 0.15
CGGUAGCAAUAUUACGUUGU | -4.62 ± 0.27 | -2.55 ± 0.15
UGGGAGCAAUAUUACGCGUA | -0.6 ± 0.38 | 0.46 ± 0.3
GUUUAGCAAUAUUACGACGC | 0.0175 ± 0.18 | -0.0772 ± 0.24
GAUUAGCAAUAUUACGACCC | -0.91 ± 0.24 | 0.12 ± 0.24
UAUGAGCAAUAUUACGACAC | – | -1.97 ± 0.41
UCCCAGCAAUAUUACGGGAC | -2.69 ± 0.17 | -2.49 ± 0.3
AAGUAGCAAUAUUACGGACG | -2.73 ± 0.18 | -1.74 ± 0.2
CCUGAGCAAUAUUACGUAUU | -2.38 ± 0.16 | -2.98 ± 0.21
CGAAAGCAAUAUUACGUGUC | -3.94 ± 0.34 | -2.71 ± 0.22
AACUAGCAAUAUUACGCGAU | -2.64 ± 0.15 | -2.22 ± 0.17
GUGGAGCAAUAUUACGCCCU | -1.79 ± 0.32 | -1.87 ± 0.26
ACUGAGCAAUAUUACGAAUA | -2.97 ± 0.28 | -2.65 ± 0.29

Sequence | self-splicing fitness (ln) (30 °C) | self-splicing fitness (ln) (37 °C)
CUCGAGCAAUAUUACGCCUG | -3.03 ± 0.24 | -2.58 ± 0.49
AGUAAGCAAUAUUACGAGUC | -2.96 ± 0.23 | -1.45 ± 0.17
GCUAAGCAAUAUUACGUGCA | -0.433 ± 0.094 | -0.212 ± 0.1
UACUAGCAAUAUUACGAUUG | -1.88 ± 0.16 | -0.352 ± 0.21
GUGUAGCAAUAUUACGCUGU | -2.96 ± 0.2 | -3.45 ± 0.39
UUAGAGCAAUAUUACGCAGA | 1.56 ± 0.32 | –
AUUGAGCAAUAUUACGUACU | -2.1 ± 0.28 | -2.57 ± 0.49
UGCAAGCAAUAUUACGGUGG | -2.3 ± 0.074 | -1.21 ± 0.085
CAUAAGCAAUAUUACGUGAG | -3.12 ± 0.13 | -0.711 ± 0.099
CUCGAGCAAUAUUACGGAGA | -2.57 ± 0.36 | -1.72 ± 0.28
AGGUAGCAAUAUUACGACCU | -3.04 ± 0.031 | -2.42 ± 0.049
UCGGAGCAAUAUUACGAUGG | -3.2 ± 0.22 | -2.1 ± 0.25
CUCGAGCAAUAUUACGCGUC | – | -2.79 ± 0.32
UGGCAGCAAUAUUACGCAAU | -2.31 ± 0.099 | -1 ± 0.12
CGAUAGCAAUAUUACGAUUG | -2.27 ± 0.12 | -1.2 ± 0.12
AAGUAGCAAUAUUACGGUGG | -3.62 ± 0.22 | -2.85 ± 0.26
CGCUAGCAAUAUUACGAGGA | -1.5 ± 0.18 | -2.97 ± 0.29
CCUUAGCAAUAUUACGGUGU | -3.82 ± 0.24 | -2.81 ± 0.23
CUGUAGCAAUAUUACGAUUU | – | -2.62 ± 0.36
GGUAAGCAAUAUUACGAGAA | -2.48 ± 0.42 | -2.67 ± 0.37
UUCUAGCAAUAUUACGUAAU | -3.08 ± 0.15 | -1.88 ± 0.17
CCAGAGCAAUAUUACGCAGC | -3.64 ± 0.28 | -1.77 ± 0.24
CUUUAGCAAUAUUACGUCUG | -0.534 ± 0.094 | -0.218 ± 0.12
AUGCAGCAAUAUUACGAAAA | – | -2.23 ± 0.42
AUUAAGCAAUAUUACGUGAC | -3.17 ± 0.17 | -1.75 ± 0.18

Sequence | self-splicing fitness (ln) (30 °C) | self-splicing fitness (ln) (37 °C)
UUAUAGCAAUAUUACGUGAG | -1.2 ± 0.087 | -0.672 ± 0.12
GAGCAGCAAUAUUACGCGUA | -0.655 ± 0.18 | -0.959 ± 0.14
CGGUAGCAAUAUUACGCAGG | -1.26 ± 0.12 | -1.44 ± 0.18
UAAAAGCAAUAUUACGAGGC | -2.69 ± 0.34 | -2.67 ± 0.36
AUUGAGCAAUAUUACGGGAG | -3.67 ± 0.26 | -2.33 ± 0.27
AUGUAGCAAUAUUACGCGCU | -0.77 ± 0.14 | -0.00271 ± 0.15
UAUCAGCAAUAUUACGGCAA | -0.306 ± 0.12 | 0.808 ± 0.15
CUCGAGCAAUAUUACGUGAC | -2.55 ± 0.17 | -1.73 ± 0.16
AUCCAGCAAUAUUACGAAGC | -2.53 ± 0.16 | -2.28 ± 0.23
GAUUAGCAAUAUUACGCGGG | -2.31 ± 0.12 | -2.53 ± 0.18
UGCAAGCAAUAUUACGCGAU | -3.34 ± 0.17 | -2.15 ± 0.2
UAAUAGCAAUAUUACGCUUG | -0.7 ± 0.082 | -0.621 ± 0.096
CCAAAGCAAUAUUACGGGGU | -3.24 ± 0.15 | -3.43 ± 0.23
CCGUAGCAAUAUUACGGUAU | -4.05 ± 0.21 | -2.85 ± 0.2
CCGCAGCAAUAUUACGCGAC | -2.84 ± 0.17 | -2.09 ± 0.26
UUUUAGCAAUAUUACGUGGU | -3.72 ± 0.35 | -3.24 ± 0.42
CCCAAGCAAUAUUACGCGUA | -3.43 ± 0.2 | -1.29 ± 0.17
CAUAAGCAAUAUUACGAGGG | -2.96 ± 0.17 | -2.53 ± 0.28
AUGAAGCAAUAUUACGCGAC | -2.1 ± 0.15 | -1.96 ± 0.27
GCACAGCAAUAUUACGUACA | -2.07 ± 0.1 | -0.994 ± 0.1
UCGGAGCAAUAUUACGAGCA | -2.39 ± 0.23 | -1.51 ± 0.27
UUGGAGCAAUAUUACGCUCC | -2.79 ± 0.33 | -0.876 ± 0.46
GGUGAGCAAUAUUACGAACU | -2.18 ± 0.42 | –
GUGCAGCAAUAUUACGCUUA | -0.938 ± 0.092 | 0.781 ± 0.15
UGACAGCAAUAUUACGUGUC | -3.44 ± 0.16 | -2.98 ± 0.16

Sequence | self-splicing fitness (ln) (30 °C) | self-splicing fitness (ln) (37 °C)
CGUCAGCAAUAUUACGGCUA | -0.938 ± 0.11 | -0.751 ± 0.11
GCAAAGCAAUAUUACGCCGG | -2.44 ± 0.17 | -1.71 ± 0.2
GGUCAGCAAUAUUACGAUCG | 0.0558 ± 0.12 | 0.097 ± 0.16
UAGAAGCAAUAUUACGUACA | -0.549 ± 0.14 | 0.208 ± 0.16
UCCGAGCAAUAUUACGAAUU | -3.49 ± 0.28 | -2.19 ± 0.35
ACUCAGCAAUAUUACGGAUG | -1.36 ± 0.068 | -0.69 ± 0.098
UGGAAGCAAUAUUACGAAGG | -2.12 ± 0.14 | -0.449 ± 0.18
AUGGAGCAAUAUUACGCAUG | -2.5 ± 0.34 | -2.36 ± 0.25
CCUGAGCAAUAUUACGCAGG | -2.64 ± 0.27 | -3.36 ± 0.42
UCAAAGCAAUAUUACGAGGU | -3.05 ± 0.13 | -2.14 ± 0.14
UUUCAGCAAUAUUACGGUAG | -0.521 ± 0.088 | -0.526 ± 0.12
ACGUAGCAAUAUUACGUGAA | -3.92 ± 0.23 | -1.82 ± 0.17
UGGAAGCAAUAUUACGGUCC | -2.67 ± 0.15 | -1.51 ± 0.14
UCCAAGCAAUAUUACGCGCU | -2.67 ± 0.21 | -1.52 ± 0.23
CAUCAGCAAUAUUACGCCCA | -2.9 ± 0.23 | -2.1 ± 0.21
CACUAGCAAUAUUACGGCCA | -3.1 ± 0.23 | –
AGGCAGCAAUAUUACGCGCU | -3.04 ± 0.15 | -1.03 ± 0.1
CUAGAGCAAUAUUACGACAG | 0.262 ± 0.087 | 0.734 ± 0.12
AUUCAGCAAUAUUACGUAUA | -1.66 ± 0.16 | -0.805 ± 0.17
CACGAGCAAUAUUACGUUCA | -2.99 ± 0.18 | -2.49 ± 0.24
UAACAGCAAUAUUACGGAUG | -1.51 ± 0.053 | -0.304 ± 0.063
CAGGAGCAAUAUUACGUUAC | -2.43 ± 0.13 | -3.01 ± 0.21
